Laboratory results as given in US20140079714A1 (published 2014).
Changes are numbered by the printed parent chain. Names and notes keep the numbering of the source.

B1: Y61-L50Y (antibody, V domains shown)
VH: QVQLVQSGGGVVQPGRSLRLSCAASGFTFSSYGMHWVRQAPGKGLEWVAFIRYDGSNKYYADSVKGRFTISRDNSKNTLYLQMKSLRAEDTAVYYCKTHGSHDNWGQGTMVTVSS
VL: SYVLTQPPSVSGTPGQRVTISCSGGRSNIGSNTVKWYQQLPGTAPKLLIYYNDQRPSGVPDRFSGSKSGTSASLAITGVQAEDEADYYCQSYDRGTHPALLFGTGTKVTVLG
B2: Y61-L50Y* IgG (antibody, V domains shown)
VH: B1 VH
VL: B1 VL
notes: IgG
B3: Y61-L94Y IgG (antibody, V domains shown)
VH: B1 VH
VL: B1 VL with Y51G, G95Y
notes: IgG
B4: Y-61-L50Y-H31E**gG (antibody, V domains shown)
VH: B1 VH with S31E
VL: B1 VL
notes: also called Y61-L50Y-H31E IgG
B5: 149-7 (antibody, V domains shown)
VH: TTHGSHDNWGQG
VL: QSYDRDFTGSRV

Columns and labels:
[1] = biological target: T1, human interleukin 12 (hIL-12), p70 heterodimer of p35 and p40 (human, UniProt P29459 23-219; P29460 23-328); assay: RB assay: inhibition of IL-12 binding to its receptor
T1 construct: the text says recombinant human IL-12. p35 and p40 are disulfide-linked; also called rh IL-12
T1 sequence (looked up) 1: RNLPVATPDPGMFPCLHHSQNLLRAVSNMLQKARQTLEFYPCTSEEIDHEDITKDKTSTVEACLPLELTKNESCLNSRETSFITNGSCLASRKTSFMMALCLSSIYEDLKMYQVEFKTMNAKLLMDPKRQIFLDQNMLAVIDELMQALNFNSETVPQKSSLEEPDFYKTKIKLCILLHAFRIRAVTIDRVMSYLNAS
T1 sequence (looked up) 2: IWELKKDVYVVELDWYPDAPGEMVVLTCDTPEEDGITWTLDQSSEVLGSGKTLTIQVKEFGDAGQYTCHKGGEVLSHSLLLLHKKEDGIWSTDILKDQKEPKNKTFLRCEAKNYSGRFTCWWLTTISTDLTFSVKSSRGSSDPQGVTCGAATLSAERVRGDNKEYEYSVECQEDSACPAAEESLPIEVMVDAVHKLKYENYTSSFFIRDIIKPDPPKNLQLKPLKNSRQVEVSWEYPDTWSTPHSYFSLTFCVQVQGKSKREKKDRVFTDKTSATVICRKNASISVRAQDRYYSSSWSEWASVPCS

[2] = biological target: T1, human interleukin 12 (hIL-12), p70 …; assay: cell-based or functional assay
[3] = biological target: T1, human interleukin 12 (hIL-12), p70 …; assay: koff, Table 2 (surface plasmon resonance per text)
[4] = biological target: T1, human interleukin 12 (hIL-12), p70 …; assay: cell-based or functional assay; remark: listed apart in the source

Binder	IC50 [1] [nM]	IFN gamma IC50 [2] [nM]	PHA assay IC50 [2] [nM]	koff [3] [s⁻¹]	PHA assay IC50 (M) p70:p40 1:0 [4] [M]	PHA assay IC50 (M) p70:p40 1:20 [4] [M]	PHA assay IC50 (M) p70:p40 1:50 [4] [M]
B1	0.02	0.02	–	–	–	–	–
B2	–	0.03	0.02	6.98e-05	–	–	–
B3	0.06	0.04	0.05	0.000127	–	–	–
B4	–	0.02	0.06	2.99e-05	–	–	–
B5	–	–	–	–	3.5e-09	2.5e-09	4e-09
